Measured values taken from the RNAGym collection of RNA variant scans (doi:10.7554/elife.80360).

B1: Hammerhead Ribozyme (parent)
chain: ACCGGAUGUGCUUUCCGGUCUGAUGAGUCCGUGAGGACGAAACAG

Variants of: B1
Assay: self-cleavage, relative activity (ratio to wild type); higher = more cleavage; co-transcriptional

Going from A6U U28G to A6U U28C, the self-cleavage rises from 0.373 to 0.638.

Going from A6U U28A to A6G U7A, the self-cleavage rises from 0.377 to 1.09.

First: A6G U7C
Second: A6G U7G
The self-cleavage of the first is lower: 1.29 for the first, 1.35 for the second.

Compared with A6U C43G, A6U C43U is higher in self-cleavage: 0.342 for the first, 0.368 for the second.

First: A6U C43A
Second: A6U A23G
The self-cleavage of the first is higher: 0.326 for the first, 0.249 for the second.

Going from A6U A23U to A6U A23C, the self-cleavage rises from 0.311 to 0.368.

Compared with A6U U9G, A6U U9C is higher in self-cleavage: 0.641 for the first, 0.654 for the second.

First: A6U U9A
Second: A6G U24A
The self-cleavage of the first is higher: 0.617 for the first, 0.597 for the second.

Compared with A6G U24C, A6G U24G is lower in self-cleavage: 0.944 for the first, 0.777 for the second.

Going from A6U A44U to A6U A44G, the self-cleavage rises from 0.36 to 1.12.

Going from A6U A44C to A6U C15G, the self-cleavage rises from 0.455 to 0.527.

First: A6U C15A
Second: A6U C15U
The self-cleavage of the first is higher: 0.741 for the first, 0.708 for the second.

First: A6U G8U
Second: A6U G8C
The self-cleavage of the first is lower: 0.489 for the first, 0.769 for the second.

First: A6U G8A
Second: A6U G27A
The self-cleavage of the first is higher: 0.807 for the first, 0.614 for the second.

Compared with A6U G27U, A6U G27C is higher in self-cleavage: 0.395 for the first, 0.552 for the second.

First: A6U C38A
Second: A6U C38G
The self-cleavage of the first is higher: 0.511 for the first, 0.458 for the second.

First: A6U C38U
Second: A6U U14C
The self-cleavage of the first is lower: 0.627 for the first, 1.07 for the second.

Compared with A6U U14A, A6U U14G is lower in self-cleavage: 1.06 for the first, 0.624 for the second.

Going from A6U A40C to A6U A40U, the self-cleavage rises from 0.268 to 0.351.

Compared with A6U A40G, A6U A26C is higher in self-cleavage: 0.317 for the first, 0.393 for the second.

First: A6U A26G
Second: A6U A26U
The self-cleavage of the first is lower: 0.291 for the first, 0.588 for the second.

Going from A6U G36A to A6U G36U, the self-cleavage falls from 0.44 to 0.391.

Going from A6U G36C to A6U A34U, the self-cleavage rises from 0.334 to 0.631.

First: A6U A34G
Second: A6U A34C
The self-cleavage of the first is higher: 0.786 for the first, 0.651 for the second.

Compared with A6G U12C, A6G U12A is higher in self-cleavage: 0.802 for the first, 0.819 for the second.

Going from A6G U12G to A6U G33U, the self-cleavage falls from 0.802 to 0.403.

Going from A6U G33A to A6U G33C, the self-cleavage falls from 0.793 to 0.551.

Compared with A6U C29U, A6U C29G is higher in self-cleavage: 0.451 for the first, 0.468 for the second.

First: A6U C29A
Second: A6G G36A
The self-cleavage of the first is lower: 0.475 for the first, 0.624 for the second.

Going from A6G G36C to A6G G36U, the self-cleavage falls from 0.351 to 0.314.

First: A6U C11A
Second: A6U C11U
The self-cleavage of the first is higher: 0.831 for the first, 0.607 for the second.

First: A6U C11G
Second: A6U A41G
The self-cleavage of the first is higher: 0.827 for the first, 0.289 for the second.

First: A6U A41C
Second: A6U A41U
The self-cleavage of the first is higher: 0.334 for the first, 0.282 for the second.

Going from A6U C30A to A6U C30G, the self-cleavage falls from 0.649 to 0.525.

First: A6U C30U
Second: A6U A37G
The self-cleavage of the first is higher: 0.743 for the first, 0.529 for the second.

First: A6U A37C
Second: A6U A37U
The self-cleavage of the first is higher: 0.677 for the first, 0.451 for the second.

First: A6G U28A
Second: A6G U28C
The self-cleavage of the first is lower: 0.468 for the first, 0.792 for the second.

Going from A6G U28G to U7A A34C, the self-cleavage rises from 0.461 to 1.78.

First: A6G U14A
Second: A6G U14G
The self-cleavage of the first is lower: 0.436 for the first, 1.13 for the second.

First: A6G U14C
Second: A6U G45A
The self-cleavage of the first is higher: 0.704 for the first, 0.536 for the second.

Compared with A6U G45C, A6U G45U is higher in self-cleavage: 0.39 for the first, 0.468 for the second.

Compared with A6U G22A, A6U G22U is higher in self-cleavage: 0.289 for the first, 0.397 for the second.

Compared with A6U G22C, A6G G39C is lower in self-cleavage: 0.354 for the first, 0.297 for the second.

First: A6G G39U
Second: A6G G39A
The self-cleavage of the first is lower: 0.248 for the first, 0.31 for the second.

Compared with A6G U13A, A6G U13G is lower in self-cleavage: 0.842 for the first, 0.778 for the second.

First: A6G U13C
Second: A6U U24A
The self-cleavage of the first is higher: 0.722 for the first, 0.494 for the second.

First: A6U U24G
Second: A6U U24C
The self-cleavage of the first is higher: 0.642 for the first, 0.573 for the second.

Compared with A6U G39U, A6U G39A is lower in self-cleavage: 0.364 for the first, 0.281 for the second.

Compared with A6U G39C, A6G U21G is higher in self-cleavage: 0.294 for the first, 0.472 for the second.

First: A6G U21A
Second: A6G U21C
The self-cleavage of the first is lower: 0.393 for the first, 0.54 for the second.

First: A6U U19C
Second: A6U U19A
The self-cleavage of the first is higher: 0.47 for the first, 0.337 for the second.

Compared with A6U U19G, A6G U9C is higher in self-cleavage: 0.395 for the first, 0.834 for the second.

Compared with A6G U9A, A6G U9G is higher in self-cleavage: 0.796 for the first, 1.09 for the second.

Going from A6U U7G to A6U U7C, the self-cleavage falls from 0.829 to 0.356.

Compared with A6U U7A, A6G G35C is higher in self-cleavage: 0.609 for the first, 0.684 for the second.

First: A6G G35U
Second: A6U C20G
The self-cleavage of the first is higher: 0.465 for the first, 0.378 for the second.

Compared with A6U C20A, A6U C20U is higher in self-cleavage: 0.373 for the first, 0.454 for the second.

Compared with A6U U12G, A6U U12A is higher in self-cleavage: 0.447 for the first, 0.538 for the second.

First: A6U U12C
Second: A6U
The self-cleavage of the first is higher: 0.716 for the first, 0.696 for the second.

First: A6U U32C
Second: A6U U32G
The self-cleavage of the first is higher: 0.988 for the first, 0.559 for the second.

Going from A6U U32A to A6U G31C, the self-cleavage rises from 0.605 to 0.704.

Going from A6U G31A to A6U G31U, the self-cleavage rises from 0.748 to 0.889.

Going from A6G U19G to A6G U19A, the self-cleavage rises from 0.264 to 0.278.

Compared with A6G U19C, A6U A42C is lower in self-cleavage: 0.486 for the first, 0.238 for the second.

Compared with A6U A42U, A6U A42G is higher in self-cleavage: 0.241 for the first, 0.307 for the second.

Going from A6U U13G to A6U U13C, the self-cleavage rises from 0.616 to 1.02.

Compared with A6U U13A, U7A is higher in self-cleavage: 0.747 for the first, 1.28 for the second.

Compared with A6U G18C, A6U G18U is lower in self-cleavage: 0.395 for the first, 0.344 for the second.

First: A6U G18A
Second: A6G G45U
The self-cleavage of the first is lower: 0.34 for the first, 0.597 for the second.

Compared with A6G G45C, A6G G45A is higher in self-cleavage: 0.433 for the first, 0.556 for the second.

First: A6U G35U
Second: A6U G35A
The self-cleavage of the first is lower: 0.499 for the first, 0.505 for the second.

Going from A6U G35C to A6U U21C, the self-cleavage rises from 0.473 to 0.616.

First: A6U U21G
Second: A6U U21A
The self-cleavage of the first is lower: 0.449 for the first, 0.517 for the second.

Compared with A6G U32A, A6G U32G is lower in self-cleavage: 0.968 for the first, 0.431 for the second.

First: A6G U32C
Second: U7A A23C
The self-cleavage of the first is higher: 0.931 for the first, 0.434 for the second.

Going from U7A A23U to U7A A23G, the self-cleavage falls from 0.322 to 0.308.

Compared with A6U G17C, A6U G17A is higher in self-cleavage: 0.354 for the first, 0.401 for the second.

First: A6U G17U
Second: A6U C16A
The self-cleavage of the first is lower: 0.465 for the first, 0.471 for the second.

Compared with A6U C16G, A6U C16U is higher in self-cleavage: 0.459 for the first, 0.655 for the second.

Compared with A6U G10C, A6U G10U is higher in self-cleavage: 0.522 for the first, 0.747 for the second.

Going from A6U G10A to A6U G25U, the self-cleavage falls from 0.75 to 0.355.

Compared with A6U G25A, A6U G25C is lower in self-cleavage: 0.308 for the first, 0.259 for the second.

Compared with U7A A26U, U7A A26C is lower in self-cleavage: 0.556 for the first, 0.311 for the second.

U7A A26G gave a self-cleavage of 0.221.
